# Data as given in patent publication US12692302B2, “Uses of IL-13 antagonists for treating atopic dermatitis” (Genentech, Inc., priority 2016, dated 2026).
# Legend:
# [1] = system: patients with persistent moderate to severe atopic dermatitis inadequately controlled by TCS; test: Clinical Study I: safety, Weeks 0 to 20; format: in vivo, human
# Excerpt: Safety Follow-Up Period. All patients who completed study treatment during the placebo-controlled treatment period (Weeks 1-12) were followed for safety for an additional 8 weeks (Weeks 13-20). During this safety follow-up period, patients were no longer required to apply the topical treatment regimen as specified during the run-in and treatment periods. Instead, triamcinolone acetonide 0.1% cream and/or hydrocortisone 2.5% cream could be applied as determined by the patient and the study investigator. At each study visit the patient was required to bring their TCS containers to the study site to be weighed. Patients were encouraged to continue applying emollients at least once daily to xerotic skin. An escalation in therapy for AD was allowed at any during the study, if, in the opinion of the investigator, it was clinically indicated.
# Safety Outcome Measures. The safety outcome measures for this study were as follows: (i) frequency and severity of treatment-emergent adverse events; (ii) incidence of human anti-therapeutic antibodies (ATA) at baseline and during the study; (iii) frequency and severity of skin and other organ system infections throughout the study; the clinical definition of skin infection was as follows: the diagnosis of infection was based on the Investigator's clinical assessment including but not limited to the presence of honey-colored crusting, serous discharge, pustules, or pain at the site of rash and that may be associated with systemic features, including fever or a flare in AD disease (defined above); and (iv) incidence of disease rebound following discontinuation of study drug as assessed by the investigator; the clinical definition of disease rebound was: a significant worsening of disease severity after cessation of therapy to a severity level that is greater than prior to commencing therapy (Hijnen et al., J Eur Acad Dermatol Venereol 2007; 21(1) 85-9).
# [2] = system: atopic dermatitis patients; test: Atopic dermatitis longitudinal PK-PD model of lebrikizumab (EASI score) and simulated dosing regimens; design: species or system human; conditions: PK-PD model fitted to EASI scores up to 12 weeks from Clinical Study I
# Excerpt: In FIG. 5, R(t) is the EASI score; Kin0 is the baseline disease progression rate constant; kin is the disease progression rate constant with lebrikizumab and including the placebo/TCS effect; Edrug is the lebrikizumab drug effect on disease progression inhibition; Econ is the placebo/TCS effect (constant overtime); Emax is the maximum lebrikizumab drug effect on disease progression inhibition; EC50 is the lebrikizumab concentration that leads to 50% of Emax; kout is the tissue repair rate constant; R(t=0) is the baseline EASI score; IIV is the inter-individual variability; ωkout is the inter-individual variability for kout; ωEcon is the inter-individual variability for Econ; ρKoutXEcon is the correlation between kout and Econ; and σ is the residual error.
# The model was used to simulate the predicted efficacy, e.g., EASI-75 score, of various alternative dosing regimens, for example, including but not limited to, various loading doses followed subsequently by various maintenance doses, e.g., flat doses of lebrikizumab administered at regular time intervals, or various lower flat doses or higher flat doses, or increased treatment intervals with lebrikizumab.
# The model development began with raw pharmacokinetic and efficacy data that had been collected during the conduct of the Phase II Clinical Study I described above. […]
# [3] = 125 mg Q4W + TCS (n = 50), Weeks 0 to 20
# [4] = 125 mg SD + TCS (n = 54), Weeks 0 to 20
# [5] = 250 mg SD + TCS (n = 52), Weeks 0 to 20
# [6] = all lebrikizumab groups (n = 156), Weeks 0 to 20
# [7] = lebrikizumab-treated patients, all doses
substance,measurement,setting,value
"lebrikizumab: monoclonal humanized anti-IL-13 IgG4 antibody; heavy chain SEQ ID NO: 11, light chain SEQ ID NO: 12; formulated at 125 mg/mL in prefilled syringe","AE leading to withdrawal from study drug, %",[1]; [3],(4) %
same,"Conjunctivitis allergic, %",[1]; [3],(4.0) %
same,"Injection site reactions, %",[1]; [3],(4) %
same,"Patients with at least one AE, %",[1]; [3],(54) %
same,"Patients with at least one serious AE, %",[1]; [3],(4) %
same,"SAE leading to withdrawal from study drug (Myopathy), %",[1]; [3],(2) %
same,"AE leading to withdrawal from study drug, %",[1]; [4],(2) %
same,"Conjunctivitis allergic, %",[1]; [4],(7.4) %
same,"Patients with at least one AE, %",[1]; [4],(70) %
same,"Patients with at least one serious AE, %",[1]; [4],(6) %
same,"AE leading to dose modification/interruption, %",[1]; [5],(2) %
same,"Conjunctival hyperaemia, %",[1]; [5],(1.9) %
same,"Conjunctivitis allergic, %",[1]; [5],(3.8) %
same,"Patients with at least one AE, %",[1]; [5],(75) %
same,"Conjunctival hyperaemia, %",[1]; [6],(0.6) %
same,"Conjunctivitis allergic, %",[1]; [6],(5.1) %
same,"Patients with at least one serious AE, %",[1]; [6],(3) %
same,"SAE leading to withdrawal from study drug (Myopathy), %",[1]; [6],(1) %
same,"Conjunctival infections, irritations and inflammations: patients with at least one AE, %","[1]; human, in vivo",(5.8) %
same,"Conjunctival infections, irritations and inflammations: total number of events","[1]; human, in vivo",10
same,Herpes infections: total number of infections related to study drug (investigator-assessed),"[1]; human, in vivo",0
same,"Infections, %","[1]; human, in vivo",(36) %
same,maximum eosinophil count in the five patients with eosinophil-associated AEs,"[1]; human, in vivo",0.91-3.2 ×10^9/L
same,"Eosinophil-associated AEs, % of patients",[1]; [7],3.2%
same,"Eosinophil-associated AEs, number of patients",[1]; [7],five
same,"patients with a conjunctivitis AE, %",[1]; pooled lebrikizumab group,9.6%
same,"deaths, events of anaphylaxis, malignancy, or protocol-defined parasitic or targeted intracellular infections of interest",[1]; whole study,no deaths
same,"EC50 (lebrikizumab concentration that leads to 50% of Emax), estimate",[2],8.08 µg/mL
same,"Emax (maximum lebrikizumab drug effect on disease progression inhibition), estimate",[2],0.729
